Assay: yeast display, Sf9 membrane polyspecificity reagent, FACS + sequencing; frameworks hold sequencing errors
How it was run: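 Synthetic nanobody libraries on Saccharomyces cerevisiae BJ5465 were galactose-induced for 36–48 hours, stained 1 hour at 4 °C with 10% biotinylated, detergent-solubilized Sf9 membrane reagent and enriched on streptavidin microbeads. FACS then separated cells into low and high (top ~1%) gates by anti-HA (expression) and streptavidin (reagent binding) fluorescence. Genes were colony-PCR amplified, MiSeq 2 × 250 sequenced and CDR-length filtered. A clone's polyreactivity label is that of its gate of origin.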

QVQLVDSGGGLVQAGGSLRLSCASSGRIFSEYAMGWYRQAPGKERELVAAISRRGGRTYYADSVKGRFTISRDNAKNTVYLQMNSLKPEDTAVYYCAADHGDPGGYDYWGQGTQVTVSS
polyreactivity (PSR sort gate): high polyreactivity

QVQLVESRGGLVQAGRSLRLSCAASGRTFHRNTLGRYRQAPGKERELVAAITGDGRTNYADSVKGRFTISRDNAKNTVYLLMNSLKPEDTAGYYCAAQYYYSEAGRDYWGQGTQVTVSS
polyreactivity (PSR sort gate): low polyreactivity

QVQLVESGGGLVQAGGSLRLSCAASGITFYSYAMGWYRQAPGKERELVAAISSSGTTYYADSVKGRFTISRDNAKNTVYLQMNSLKPEDTAVYYCAVDSYYKYDYWGQGTQVTVSS
polyreactivity (PSR sort gate): low polyreactivity

QVQLVESGGGLFQAGGSLRLSCAPSGNNFYGNDMGWYRQAPGKERDLVAAISRGGSTYYADSVKGRFTSSRDNAMNTVYLQMNSLKPEDSEVFYCAADYAYTTISWDDYWGQGTLVTVSS
polyreactivity (PSR sort gate): low polyreactivity

QVQLVESGGGLVQAGGSIRLSCAASGRISTYYTMGWYRQAPGKERELVAAISWSGTSTYYADSVKGRFTISRDNAKNTVYLQMNSLKPEDTAVYYCNARWRYPLDSVTDDYWGQGTQVTVSS
polyreactivity (PSR sort gate): high polyreactivity

QVQLVESGGGLVQAGGSLRLSCAASGHFFFYYPLGWYRQAPGKERELVARFTLSGTSTYYADSVKGRFTISRDNAKNSVYLQMNSLKPEDTAVYYCAAPYFTYGQDDDDYWRQGTQVTVSS
polyreactivity (PSR sort gate): low polyreactivity

QVQLVESGGGLVQAGGSLRLSCAASGIIFAGNTMGWYIQAPWKERELVAAITWSGGSTYYADSVKGRFTISRDNAKNTVYLQMNSQKPEDTAVYYCAAYYGGYGWDDKYDYWGQGTQVTVSS
polyreactivity (PSR sort gate): low polyreactivity

QDQLVESGGGLVQAGGSLRLSCAASGSISWVYSMGWYRQAPGKEREFVAAISESGDTYYADSVKGRFTISRDNAKNTVYLQMNSLKPEDTAVYYCAATSPDGVTYDYWGHGTQVTVSS
polyreactivity (PSR sort gate): low polyreactivity

QVQLVESGGGLVQAGGSLRLSCAASGSIFRRYAMGWYRPAPGKERELVAAITNRGGTTYYADSVKGRFTISRDNAKNTVYLQMNSLNPEDTAVYYCATALWVRYYGQGGYIRRYDYWGQGTQVTVSS
polyreactivity (PSR sort gate): high polyreactivity

QVQLVESGGGLVQAGGSLRLSCAASGRIFQAYAMGWYRQAPGKERELVAAISRSGGGTYYADSVKGRFTISRDNAKNTVYLQMNCLKPEDTAVYYCNARGSTARGRGYWGQGTQVTVSS
polyreactivity (PSR sort gate): high polyreactivity

QVQLVESVGGLVQAGGSLRLSCAASGFTLFFYAMGWYRQAPGKERELVARITSRAGRTYYADSVKGRFTISRDNAKNTVYLQMNSLKPEDNAVFYCNTRDFSGYVHALSLYDYWGQGTQVTVSS
polyreactivity (PSR sort gate): high polyreactivity

QVQLVESGGGLVQAGGSLRLSCAASGSIFDYYAMGWYRQAPGKERELVAAIDNPDSTNYADSVKGRFTISRDNAKNTVYFQMNSLKPEDTAVYYCNADYWRYISSYDYWGQGTQVTVSS
polyreactivity (PSR sort gate): low polyreactivity

QVQLVESGGGLVQAGGSLRLSCAASGITIVLYAMGWYRQAPGQERQLVAAINIDGNTNYADSVKGRFTISRDNAKNTVYLQMNSLKPEDTAVYYCAATFVPAQSRYTGSKYDYWGQGTQVTVSS
polyreactivity (PSR sort gate): low polyreactivity

QVQLVESGGGLVQAGGSLRLSCAASGSIFYRYSMGWYRPAPGKESELVATITQSGVTTYYADSVKGRFTISRDNAKNTVYLELNSVKPEDTAVYYCAASYYYYLGPFFRKFDWGQGTQVTVSS
polyreactivity (PSR sort gate): low polyreactivity

QVQLVESGGGLVQAGGSLRLSCAASGRTFSYAMGWYRQAPGKERELVAAISSGARTYYADSVKGRFTISRDNAKNTVYLQMNSLIPEDTAVYYCNARSRYEGLNYWGHGTQVTVSS
polyreactivity (PSR sort gate): high polyreactivity

QVQLVESGGGLVQAGGSLRLSCAASGRTFRINAMGWYRQAPGKERELVAAITSIAGNTYYADSVKGRFTISRDNAKNTVYLQMNSLKPEDTAVYYCAVDSVPWGFRGAYGLTRYYYWGQGTQVTVSS
polyreactivity (PSR sort gate): low polyreactivity

QVQHVESGGGLVQAGGSLRLSCAASGGIFRFYAMGWYRQAPGKERELVARITSSGGGTYYADSVKGRFTISRDNAKNTVYLQMNSLKPEDTAVSYCAALVYSSYPAGWYDYWGQGTQVTVSS
polyreactivity (PSR sort gate): high polyreactivity

QVQLVESGGGLVQAGGSLRLSCAASGSTFYRYTMGWYRQAPGKEREFVATITGRGGSTYADSVKGRFTISRDNAKNTVYLQMNSLKPEDTAVYYCAKRQTYREYDYWGQGTQVTVSS
polyreactivity (PSR sort gate): low polyreactivity

QVQLVESGGGLVQAGGSLRLSCASSVRIFEVYAMGSYRQAPGKERELVADITYSGGSTYYADSVKGRFTISRDNAMNTVYLQMNSLKPEDTAVYYCAADVTFVHRYEYYRSYDYWGQGTQVTVSS
polyreactivity (PSR sort gate): low polyreactivity

QVQLVESGGGLVQAGGSLRLSCAASGRIFKYYVMGWYRQAPGKERELVATISSGSGTNYADSVKGRFTISRDNAKNTVYLQMNSLKPEDTAVYYCAARWTPRVRGYNYWGQGTLVTVSS
polyreactivity (PSR sort gate): high polyreactivity

QVQLVESGGGLVQAGGSLRLSCAASGFIFVTYAMGWYRQAPGKERELVAAITNSGGTTYYADSVKGRFTISRDNAKNTVYLQMNSLKPEDTAVYYCNKPYGAETAHREFDYWGQGTQVTVSS
polyreactivity (PSR sort gate): low polyreactivity

QVQLVESGGGLVQAGGSLRLSCAASGSIFIDNAMGWYRQAPGKERELVAAITVRGASTNYADSVKGRFTISRDIAKNTVYLQMNSLKPEDTAVYYCNAVGLRSPWHQDFLIRYDYWGQGTQVTVSS
polyreactivity (PSR sort gate): low polyreactivity

QVQLVESGGGLVQAGGSLRLSCAASGLTFKDNAMGWYRQAPGKERELVAAISKGGGSTFYADSVKGRFTISRDYAKNTVYFQMNSLKPEDTAVYYCNADVGYRGGEEVYWGQGTQVTVSS
polyreactivity (PSR sort gate): low polyreactivity

QVQLVEAGGGLVQAGGSLRLSCGASGFTFVYYAMGWYRQAPGKERELVAAISRSGGSTYYADSVKGRFTISRDNAKNTVYVQMNSLKPEDTAVYYCAARKNYGSRLSYEYWGQGTQVTVSS
polyreactivity (PSR sort gate): high polyreactivity

QVQLVESGGGLVQAGGSLRLSCAASGFIFNLYAMGWYRQAPGKERELVATITNRGGITHYADSVKGRFTISRDNAKNTVYLQMNSLKPEDSAVYYCAVKVYRRSGGYEYWGQGTQVTVSS
polyreactivity (PSR sort gate): low polyreactivity

QVQLVESGGGLVQAGGSLRLSCAASGFIFGRYAMGWYRPAPGKERELVAAITASGGRTYYADSVKGRFTISRDNAKNTVYIQMNSLKPEDTAVYYCNTPSLWSGEDYWGQGTQVTVSS
polyreactivity (PSR sort gate): low polyreactivity

QVQLVESGGGLVQAGGSLRLSCAASGLIFGTYAMGWYRQAPGKERELVATITRGGGSTYYADSVKGRFTISRDNAKNTVYLQMNSLKPEDTAVYDCAKTYFYGVRRFNYWGQGTQVTVSS
polyreactivity (PSR sort gate): high polyreactivity

QVQLVESGGGLVQAGGSLRLSCAASGLTFTYYAMGWYRQAPGKERELVAAISWSGGSTYYADSVKGRFTISRDNAKNTVYLQMNSLKPEDTAVYYCAAATAYYRYRGGYDYWGQGTQVTVSS
polyreactivity (PSR sort gate): high polyreactivity

QVQLVESGGGLVQAGGSLRLSCAASGIIFASNGMGWYRQAPGKERELLAAISSGGSTNYADSVKGRFTISRDNAKNTVYLQMNSLKPEDTAVYYCSTSGPQYYSRNFDYWGLGTQVTVSS
polyreactivity (PSR sort gate): low polyreactivity

EEELVDSGGGLVQAGGSLRLSCSAYGSTFRDYAMGWYRQAPGKERELVAAITSGGTTDYADSVKGRFPISRDNAKNTVYLQMNSLKPEDTAVYYCNKDGVVAGYQYDYWGQGTQVTVSS
polyreactivity (PSR sort gate): low polyreactivity

QVQLVESGGGLVQAGCSLRLSCSASGSTFVAYAMGWYRQAPGTERELVAANTTGGSTNYADSVKGRFTISRDNAKNTVYLQMNSLKPEDTAVYYCATDSSTTWLRRATSKGPGEYWGQGTQVTVSS
polyreactivity (PSR sort gate): low polyreactivity

QVQLVESGGGLVQAGGSLRLSCAASGFTFHYNAMGWYRQAPRKEREFVAAISGSGDRTYYADSVKGRFTISRDNAKNTVYLQMNSLKPEDTAVYYCATSVRQNYFYSYDYWGQGTQVTVSS
polyreactivity (PSR sort gate): high polyreactivity

QVQLVESGGGLVQAGGSLRLSCAASGRTIASYAMGWYRQAPGKERELVAAITSGGSTYYADSVKGRFTISRDNAKNTVYLQMNSLKPEDTAVYYCARIHAIWRGYDYWGQGTQVTVSS
polyreactivity (PSR sort gate): low polyreactivity

QVQLVESGGGLVQAGGSLRLSCAASGRIFASKAMGWYRQAPGKERELVAAITTTGGSTYYADSVKGRFTISRDNAKNTVYLQMNSLKPEDTAVYYCASRAIPRVRRYGSMNYWGQGTQVTVSS
polyreactivity (PSR sort gate): high polyreactivity

QVQLVESGGGLVQAGGSLRLSCAASGPIFKRNAMGWYRQAPGKERELVAAISGSGGRTNYADSVKGRFTISRDTAKNTVYLQMNSLKPEDTAVYYCAARANFFGWPKSYYYLGQGTQVTVSS
polyreactivity (PSR sort gate): high polyreactivity

QVQLVESGGGLVQAGGSLRLSCAASGSIFNYYTMGWYRQAPGKERELVARITSGDSTYYADSVKGRFTISRDNAKNTVYLQMNSLKPEDTAVYYCNAGLYRRRSTYYRQAYNYWGQGTQVTVSS
polyreactivity (PSR sort gate): high polyreactivity

QVQLVESGGGLVQAGGSLRLSCAASGSTFGRNAMGWYRQAPGKERELVASISSGGSTYYADSVKGRFTISRDNAKNTVYLQMNSLKPEDTAVYYCARRAYQNWYNYWGQGTQVTVSS
polyreactivity (PSR sort gate): high polyreactivity

QVQLVETGGGLVQAGGSLRLSSAASGGIFSPNAMGWYRQAPGKEREFVAAISSNGGSTNYADSVKGRFTISRDNAKNTVYLQMNSLKPEDTAVYYCAADYPDHPLWGPEYDYWGQRTQVTVSS
polyreactivity (PSR sort gate): low polyreactivity

QVQLVESGGGLVQAGGSLRLSCAASGRIFYAYAMGWYRQAPGKERELVAAITFSGGSTYADSVKGRFTISRDNAKNTVYLQMNSLKPEDTAVYYCAADFGRHPRDYDYYWGQGTQVTVSL
polyreactivity (PSR sort gate): low polyreactivity

QVQLVESGGGLVQAGGSLRLSCAASGSIFEWYAMGWYRQAPGKERELVAAINSGGSTYYADSVQGRFTISRDNAKNTVYLQMNSLKPEDTAVYYCNYDTLLQDRLGDWYDYDYWGQGTQVTVSS
polyreactivity (PSR sort gate): low polyreactivity

QVQLVESGGGLVQAGGSLRLSCAASGFIFARYAMGWYRQAPGKEREFVAAITWSGGTTYYADSVKGRFTISRDYAKNTVYFQMNSLKPEDTAVYYCAARWGKTLWQYNYWGQGTQVTVSS
polyreactivity (PSR sort gate): high polyreactivity

QVQLVESGGGLVQAGGSLRLSCAASGSIFTYNAMGWYRQAPGKERELVAAISWSGGSRYYADSVKGRFTISRDNAKNTVYLQMNSLKPVDTAVYYCAAALQYRLYFYPKYDYWGQGTQVTVSS
polyreactivity (PSR sort gate): high polyreactivity

QVQLVESGGGLVQAGGSLRLSCAASGSTFSNYAMGGYRQAPGKERELVAAITSGGTTNYADSVKGRFTISRDNAKNTVYLQMNSLKPEDTAVYYCAKRYSYHVPTHIWVEYYYWGQGTQVTVSS
polyreactivity (PSR sort gate): low polyreactivity
